This data set concerns Escherichia coli TOP10. Nature of the data set: shrunken log2 fold change of peptide-encoding DNA abundance (4.5 h post-induction vs induction); higher = less antimicrobial activity (less host growth inhibition). To be noted: time post-induction: 4.5 h; library: site-saturation at positions 5, 18, 19, 20.
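Further: peptides expressed intracellularly from a pBAD plasmid library in pooled LB shake-flask culture, induced with 0.3% L-arabinose, DNA abundance read by NGS, three biological replicates, DESeq2 with apeglm shrinkage.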

Regarding RRIRCRPPRLPRPRPRPHEEPRP, the “shrunken log2 fold change” value stood at 0.0524.

In the case of RRIRIRPPRLPRPRPRPRITPRP, the “shrunken log2 fold change” value was -0.354.

As to RRIRMRPPRLPRPRPRPHHIPRP, the “shrunken log2 fold change” value is -0.165.

RRIRPRPPRLPRPRPRPWNMPRP: the “shrunken log2 fold change” value was -0.189.

As to RRIRMRPPRLPRPRPRPQQWPRP, the “shrunken log2 fold change” value was 0.153.

Turning to RRIRNRPPRLPRPRPRPWCWPRP, the “shrunken log2 fold change” value was -0.0119.

Turning to RRIRVRPPRLPRPRPRPCYVPRP, the “shrunken log2 fold change” value is -0.0957.

As to RRIRYRPPRLPRPRPRPASAPRP, the “shrunken log2 fold change” value came out at 0.0949.

RRIRFRPPRLPRPRPRPNILPRP: the “shrunken log2 fold change” value was -0.178.

Turning to RRIRARPPRLPRPRPRPIIRPRP, the “shrunken log2 fold change” value is -0.357.

Regarding RRIRHRPPRLPRPRPRPRTMPRP, the “shrunken log2 fold change” value was -0.0671.

In the case of RRIRYRPPRLPRPRPRPVWNPRP, the “shrunken log2 fold change” value is -0.136.

For the sequence RRIRERPPRLPRPRPRPRDLPRP, the “shrunken log2 fold change” value amounted to 0.023.

Turning to RRIRPRPPRLPRPRPRPINDPRP, the “shrunken log2 fold change” value is -0.178.

With RRIRVRPPRLPRPRPRPPYWPRP, the “shrunken log2 fold change” value worked out at 0.121.

In the case of RRIRPRPPRLPRPRPRPAVWPRP, the “shrunken log2 fold change” value came to 0.602.

For the sequence RRIRGRPPRLPRPRPRPPYAPRP, the “shrunken log2 fold change” value turned out to be 0.798.

RRIRQRPPRLPRPRPRPAYMPRP: the “shrunken log2 fold change” value is -0.263.

Take RRIRRRPPRLPRPRPRPMTSPRP: the “shrunken log2 fold change” value is -0.00455.

RRIRWRPPRLPRPRPRPFFVPRP: the “shrunken log2 fold change” value was 0.173.

Take RRIRTRPPRLPRPRPRPWAPPRP: the “shrunken log2 fold change” value came to 0.154.

Turning to RRIRTRPPRLPRPRPRPWYPPRP, the “shrunken log2 fold change” value was -0.255.

In the case of RRIRTRPPRLPRPRPRPYRMPRP, the “shrunken log2 fold change” value is -0.128.

As to RRIRARPPRLPRPRPRPMPSPRP, the “shrunken log2 fold change” value came to 0.341.

In the case of RRIRNRPPRLPRPRPRPPRMPRP, the “shrunken log2 fold change” value worked out at 0.24.

In the case of RRIRNRPPRLPRPRPRPQTCPRP, the “shrunken log2 fold change” value turned out to be 0.0139.

Regarding RRIRLRPPRLPRPRPRPTTNPRP, the “shrunken log2 fold change” value was -0.0886.

On to RRIRIRPPRLPRPRPRPQFFPRP, for which the “shrunken log2 fold change” value is -0.304.

With RRIRLRPPRLPRPRPRPARFPRP, the “shrunken log2 fold change” value came out at 0.0674.

As for RRIRGRPPRLPRPRPRPEKCPRP, the “shrunken log2 fold change” value is 0.599.

RRIRMRPPRLPRPRPRPEHSPRP: the “shrunken log2 fold change” value came to 0.234.

For the sequence RRIRYRPPRLPRPRPRPIDNPRP, the “shrunken log2 fold change” value is -0.542.

Turning to RRIRWRPPRLPRPRPRPYLPPRP, the “shrunken log2 fold change” value was -0.826.

Turning to RRIRIRPPRLPRPRPRPMTCPRP, the “shrunken log2 fold change” value was -0.00783.

On to RRIRPRPPRLPRPRPRPNLFPRP, for which the “shrunken log2 fold change” value worked out at 0.175.

Take RRIRKRPPRLPRPRPRPCRPPRP: the “shrunken log2 fold change” value is 0.0439.

For the sequence RRIRARPPRLPRPRPRPEIWPRP, the “shrunken log2 fold change” value was determined as 1.55.

RRIRYRPPRLPRPRPRPKTNPRP: the “shrunken log2 fold change” value was -0.516.

Take RRIRDRPPRLPRPRPRPYCAPRP: the “shrunken log2 fold change” value was -0.204.

For the sequence RRIRLRPPRLPRPRPRPWFLPRP, the “shrunken log2 fold change” value is -0.449.

Consider RRIRGRPPRLPRPRPRPVYQPRP, for which the “shrunken log2 fold change” value was determined as 0.0322.

In the case of RRIRERPPRLPRPRPRPYTAPRP, the “shrunken log2 fold change” value was -0.662.

As for RRIRLRPPRLPRPRPRPKLNPRP, the “shrunken log2 fold change” value was -0.182.

On to RRIRGRPPRLPRPRPRPDGKPRP, for which the “shrunken log2 fold change” value stood at 0.0293.

On to RRIRCRPPRLPRPRPRPYKEPRP, for which the “shrunken log2 fold change” value is 0.0662.

As for RRIRYRPPRLPRPRPRPNGDPRP, the “shrunken log2 fold change” value is -0.112.

For RRIRGRPPRLPRPRPRPMNHPRP, the “shrunken log2 fold change” value is 0.116.

Turning to RRIRTRPPRLPRPRPRPYYDPRP, the “shrunken log2 fold change” value was -0.24.

Regarding RRIRRRPPRLPRPRPRPWAKPRP, the “shrunken log2 fold change” value worked out at 0.0786.

For RRIRHRPPRLPRPRPRPRQMPRP, the “shrunken log2 fold change” value is -0.0208.

With RRIRWRPPRLPRPRPRPVWIPRP, the “shrunken log2 fold change” value stood at 0.142.

As for RRIRIRPPRLPRPRPRPLMAPRP, the “shrunken log2 fold change” value was -0.408.

As to RRIRQRPPRLPRPRPRPKRSPRP, the “shrunken log2 fold change” value was 0.0578.

In the case of RRIRLRPPRLPRPRPRPKEGPRP, the “shrunken log2 fold change” value was -0.0145.

Consider RRIRERPPRLPRPRPRPGMFPRP, for which the “shrunken log2 fold change” value is -0.837.

For the sequence RRIRHRPPRLPRPRPRPRDEPRP, the “shrunken log2 fold change” value was -0.0872.

Consider RRIRTRPPRLPRPRPRPKHPPRP, for which the “shrunken log2 fold change” value is -0.317.

Consider RRIRWRPPRLPRPRPRPTCVPRP, for which the “shrunken log2 fold change” value turned out to be 0.145.

As to RRIRYRPPRLPRPRPRPEYSPRP, the “shrunken log2 fold change” value is -0.0605.

On to RRIRARPPRLPRPRPRPEAEPRP, for which the “shrunken log2 fold change” value is 1.61.

Turning to RRIRHRPPRLPRPRPRPAHNPRP, the “shrunken log2 fold change” value was -0.366.

In the case of RRIRMRPPRLPRPRPRPHRAPRP, the “shrunken log2 fold change” value is 0.677.

Regarding RRIRYRPPRLPRPRPRPLMDPRP, the “shrunken log2 fold change” value is -0.143.

In the case of RRIRLRPPRLPRPRPRPFNAPRP, the “shrunken log2 fold change” value is -0.154.

Consider RRIRARPPRLPRPRPRPVYNPRP, for which the “shrunken log2 fold change” value is -0.482.

In the case of RRIRLRPPRLPRPRPRPVPWPRP, the “shrunken log2 fold change” value is 0.0255.

As to RRIRVRPPRLPRPRPRPHSEPRP, the “shrunken log2 fold change” value is -0.392.

Consider RRIRNRPPRLPRPRPRPDVQPRP, for which the “shrunken log2 fold change” value was -0.13.

In the case of RRIRSRPPRLPRPRPRPLGMPRP, the “shrunken log2 fold change” value is -0.243.

Consider RRIRGRPPRLPRPRPRPSSAPRP, for which the “shrunken log2 fold change” value worked out at 0.592.

Turning to RRIRRRPPRLPRPRPRPKQMPRP, the “shrunken log2 fold change” value amounted to 0.29.

RRIRNRPPRLPRPRPRPTPDPRP: the “shrunken log2 fold change” value was 0.17.

With RRIRGRPPRLPRPRPRPEEEPRP, the “shrunken log2 fold change” value was determined as 0.107.

As to RRIRQRPPRLPRPRPRPGGHPRP, the “shrunken log2 fold change” value was 0.201.

Consider RRIRFRPPRLPRPRPRPCGDPRP, for which the “shrunken log2 fold change” value is -0.01.

As to RRIRPRPPRLPRPRPRPTKTPRP, the “shrunken log2 fold change” value was found to be 0.132.

As for RRIRSRPPRLPRPRPRPRTCPRP, the “shrunken log2 fold change” value stood at 0.0915.

On to RRIRDRPPRLPRPRPRPGIYPRP, for which the “shrunken log2 fold change” value was -0.15.

On to RRIRFRPPRLPRPRPRPMFDPRP, for which the “shrunken log2 fold change” value is -0.155.

With RRIRQRPPRLPRPRPRPLLSPRP, the “shrunken log2 fold change” value is 0.00947.

As to RRIRCRPPRLPRPRPRPMVMPRP, the “shrunken log2 fold change” value was 0.0583.

In the case of RRIRARPPRLPRPRPRPMAKPRP, the “shrunken log2 fold change” value was 0.216.

Regarding RRIRQRPPRLPRPRPRPGTMPRP, the “shrunken log2 fold change” value stood at 0.00897.

In the case of RRIRVRPPRLPRPRPRPKVRPRP, the “shrunken log2 fold change” value turned out to be 0.0291.

In the case of RRIRHRPPRLPRPRPRPIIEPRP, the “shrunken log2 fold change” value worked out at 0.0811.

With RRIRRRPPRLPRPRPRPQVPPRP, the “shrunken log2 fold change” value is 0.11.

On to RRIRLRPPRLPRPRPRPFHFPRP, for which the “shrunken log2 fold change” value was -0.58.

On to RRIRMRPPRLPRPRPRPGDKPRP, for which the “shrunken log2 fold change” value was 0.9.

As for RRIRQRPPRLPRPRPRPYAMPRP, the “shrunken log2 fold change” value is -0.341.

RRIRRRPPRLPRPRPRPNPPPRP: the “shrunken log2 fold change” value is 0.451.

Regarding RRIRNRPPRLPRPRPRPYNTPRP, the “shrunken log2 fold change” value was -1.49.

Consider RRIRARPPRLPRPRPRPDRIPRP, for which the “shrunken log2 fold change” value was -0.00136.

As for RRIRRRPPRLPRPRPRPLIPPRP, the “shrunken log2 fold change” value is -0.0124.

In the case of RRIRIRPPRLPRPRPRPTNMPRP, the “shrunken log2 fold change” value was -0.427.

With RRIRARPPRLPRPRPRPYADPRP, the “shrunken log2 fold change” value is 0.103.

Turning to RRIRTRPPRLPRPRPRPRTFPRP, the “shrunken log2 fold change” value turned out to be 0.0284.

Turning to RRIRNRPPRLPRPRPRPSVEPRP, the “shrunken log2 fold change” value is -0.254.

Turning to RRIRKRPPRLPRPRPRPQMSPRP, the “shrunken log2 fold change” value was -0.164.

As for RRIRPRPPRLPRPRPRPEHGPRP, the “shrunken log2 fold change” value was -0.0552.

Turning to RRIRLRPPRLPRPRPRPIDKPRP, the “shrunken log2 fold change” value is -0.122.

As for RRIRWRPPRLPRPRPRPCISPRP, the “shrunken log2 fold change” value amounted to 0.169.

RRIRVRPPRLPRPRPRPYTWPRP: the “shrunken log2 fold change” value was -0.364.

Regarding RRIRNRPPRLPRPRPRPQLIPRP, the “shrunken log2 fold change” value was -0.0323.

RRIRFRPPRLPRPRPRPLTGPRP: the “shrunken log2 fold change” value was -0.196.

As for RRIRNRPPRLPRPRPRPTHSPRP, the “shrunken log2 fold change” value is -0.232.

With RRIRARPPRLPRPRPRPSVTPRP, the “shrunken log2 fold change” value stood at 0.0595.

Regarding RRIRARPPRLPRPRPRPNFYPRP, the “shrunken log2 fold change” value is 0.0801.

On to RRIRSRPPRLPRPRPRPQGAPRP, for which the “shrunken log2 fold change” value was 2.34.

On to RRIRIRPPRLPRPRPRPYEDPRP, for which the “shrunken log2 fold change” value is -0.00133.

Take RRIRARPPRLPRPRPRPYVFPRP: the “shrunken log2 fold change” value is -0.245.

With RRIRYRPPRLPRPRPRPVCEPRP, the “shrunken log2 fold change” value was 0.0427.

RRIRHRPPRLPRPRPRPFDHPRP: the “shrunken log2 fold change” value was -0.0277.

In the case of RRIRCRPPRLPRPRPRPFFPPRP, the “shrunken log2 fold change” value is -0.167.

As to RRIRFRPPRLPRPRPRPYNIPRP, the “shrunken log2 fold change” value is -0.181.

With RRIRMRPPRLPRPRPRPHYDPRP, the “shrunken log2 fold change” value is -0.135.

RRIRIRPPRLPRPRPRPRQDPRP: the “shrunken log2 fold change” value is 0.0231.

Take RRIRWRPPRLPRPRPRPEFEPRP: the “shrunken log2 fold change” value was found to be 0.0113.

Turning to RRIRKRPPRLPRPRPRPMQVPRP, the “shrunken log2 fold change” value came out at 0.175.

Consider RRIRERPPRLPRPRPRPEYPPRP, for which the “shrunken log2 fold change” value is -0.162.

RRIRKRPPRLPRPRPRPTGYPRP: the “shrunken log2 fold change” value came out at 0.214.

Consider RRIRCRPPRLPRPRPRPEWDPRP, for which the “shrunken log2 fold change” value is 0.309.

For RRIRARPPRLPRPRPRPTVVPRP, the “shrunken log2 fold change” value was determined as 0.238.

For RRIRLRPPRLPRPRPRPCSEPRP, the “shrunken log2 fold change” value came to 0.0739.

As to RRIRPRPPRLPRPRPRPAAGPRP, the “shrunken log2 fold change” value is 0.287.

As for RRIRLRPPRLPRPRPRPTDAPRP, the “shrunken log2 fold change” value is 0.193.
